B1: TPR t1 (parent)
chain: GACCAAUCUGCCCUCAGAGCUCGAGAACAUCUUCGGAUGCAGAGGAGGCAGGCUUCGGUGGCGCGAUAGCGCCAACGUCCUCAACCUCCAAUGCAUCCCACCACAUGAUGAUGCCUGAAGAGCCUUGGUUUUUUG

The variants in the series derive from B1. Put plainly: polymerase ribozyme fitness, log enrichment relative to wild type (log ratio); higher = more active; in vitro selection for triplet polymerase activity. The method in brief: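 Mutant libraries of each subunit of a heterodimeric triplet polymerase ribozyme were built by PCR and transcribed. Each library went through one round of in vitro selection in triplicate: annealing with biotinylated primer, partner subunit and triplets, frozen incubation at −7 °C, gel excision of extended constructs, streptavidin-bead capture and RT-PCR. Input and output libraries were Illumina-sequenced; only genotypes with ≥10 input reads and ≥1 read per output were kept. Fitness is log2(genotype enrichment/wild-type enrichment), using inverse-variance-weighted replicate averages.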
As to C70U A90G, the “polymerase ribozyme fitness (log ratio)” value is -0.454.
The same measure for C70U C80A: -5.7.
The same measure for G69U C72U: -0.304.
As for C72A U109A C123U, the “polymerase ribozyme fitness (log ratio)” value is -6.2.
The value for C72A C114U was -1.24; that for G69C G113U was -4.51.
The same measure for C70G C88U: -2.98; for C70G C88A: -4.74; for C70G C104U G127C: -2.51.
The same measure for C70A C114A A119U: -4.59.
On to G71A C97U, for which the “polymerase ribozyme fitness (log ratio)” value is -1.06.
The same measure for C72A G93C C102G: -6.8; for C72G C101U: -0.7.
Turning to C72G C101A, the “polymerase ribozyme fitness (log ratio)” value is -0.799.
For the variant C70G C123A, the “polymerase ribozyme fitness (log ratio)” value is -2.21.
The same measure for G71A G110A: -2.14; for G69U C115G: -0.0637; for G69U G93A A118G G135U: -0.918.
As for C70G C85A U106A U130A, the “polymerase ribozyme fitness (log ratio)” value was -4.47.
The value for G71A G113C was -2.6.
Take C70U G110U: the “polymerase ribozyme fitness (log ratio)” value is -2.59.
On to C70A U87G, for which the “polymerase ribozyme fitness (log ratio)” value was -1.73.
Consider C72G C114U, for which the “polymerase ribozyme fitness (log ratio)” value was -2.37.
Consider G69C C73A, for which the “polymerase ribozyme fitness (log ratio)” value was -1.18.
The same measure for G71C C123U: -0.362; for G71C A90U G122A C123U: -3.12.
The same measure for C72G C80G U130C: -5.89; for C70U C88A A119G U131A: 1.21.
For the variant C72G U81A C82G G128C, the “polymerase ribozyme fitness (log ratio)” value is -4.54.
For the variant G69C C86A C94U C114U, the “polymerase ribozyme fitness (log ratio)” value was -6.26.
The same measure for G71C C72A: -6.22; for C72G C82A: -1.18; for C72G C82G: -1.
The value for C70U U112C was 0.987.
Consider C72G C86G A121U U125A G135U, for which the “polymerase ribozyme fitness (log ratio)” value is -2.76.
The same measure for C70A C104A: -3.24; for G71C A74U C89U G110C U125A U129A: -7.38; for C70A U96A: -2.63.
The value for G69A U106C C114A G120C was -3.12; that for C70U A111G was 0.0643.
The value for C72A C82A U87A was -0.837; that for C72G G117C U130G was -4.4.
As to C70U G107C G122A, the “polymerase ribozyme fitness (log ratio)” value is -5.12.
The value for G71C G120C was 0.219; that for C70G C72U was -2.61; that for G71A C114G was -3.49.
In the case of G69U U78G A91C U92G, the “polymerase ribozyme fitness (log ratio)” value was -0.788.
The value for G69U C70G C88U C115A was -0.11.
The same measure for C72A A103U C124G U131C: -2.63.
Turning to G71C U96G G120U, the “polymerase ribozyme fitness (log ratio)” value is -1.37.
The same measure for C70U U78C U129G: -1.5; for C70U U78C U129A: -1.77; for C72G C123U: 0.62.
As for C70A C89U, the “polymerase ribozyme fitness (log ratio)” value was -2.29.
G69U C80G: the “polymerase ribozyme fitness (log ratio)” value is -2.32.
The value for G69U C86G was 0.0893; that for G69C U81C C88U U106C was -2.4.
With C70U C124G, the “polymerase ribozyme fitness (log ratio)” value is 0.921.
The value for G71A C123U was 0.153; that for C72G A111U U130G was -4.27; that for C70A C85U G113A was -3.33.
The same measure for G69U G113C G122C G127A U132A: -4.29.
In the case of C70A U109G, the “polymerase ribozyme fitness (log ratio)” value is -5.72.
The same measure for C70A U109C: -4.18; for G69U U78G C79A U116A U129G: -5.04; for G69U U92A U130A: -1.5.
With G71A G117U, the “polymerase ribozyme fitness (log ratio)” value is -2.33.
As for C70U U81C U96C, the “polymerase ribozyme fitness (log ratio)” value was -1.2.
C72A U131C: the “polymerase ribozyme fitness (log ratio)” value was -0.247.
On to C70G U78C C82G A91C, for which the “polymerase ribozyme fitness (log ratio)” value is -5.79.
The value for G69C C80U was -2.38; that for G69C C97A was -6.49; that for G69C G128C was -3.85.
As for G71A U131G, the “polymerase ribozyme fitness (log ratio)” value was -1.27.
The value for C70U A83C A108G was -2.22; that for G69U C86G C94U C124G G135A was 0.0412; that for G71A U106A was -0.841.
The same measure for G71A U106G: -2.73; for C70U A75G: -0.621.
The value for C70U C104U was -0.703.
Turning to C70A C99U, the “polymerase ribozyme fitness (log ratio)” value is -5.26.
The value for G69C C123A was -0.685; that for C72G A111C was -0.642.
The value for C70U C72U A121G was 1.38.
Take C70A A84U: the “polymerase ribozyme fitness (log ratio)” value was -0.795.
In the case of G71U U96A, the “polymerase ribozyme fitness (log ratio)” value is -1.24.
The value for C70A C72G C102A C104A was -6.86; that for G69C U78C U106A was -2.46.
The same measure for C72A C94U: -0.00506.
Consider C72A G117A, for which the “polymerase ribozyme fitness (log ratio)” value was -1.19.
The value for C70A C114A was -2.64; that for C72G C124U was 1.15.
The value for G69U A103C was -1.85.
The same measure for G71C C89G U130C: -4.18; for C70G G117U: -4.3; for C70U C80A A95G A111G: -5.34.
In the case of G71A U92A A95U, the “polymerase ribozyme fitness (log ratio)” value is -4.72.
The value for C72G C94U was 0.173; that for G69U A118G was -0.0784.
The value for C70G G135U was -3.49.
The value for C72A C85U C102U A121G U133A was 0.201; that for C70A G120A was -0.62; that for C70U C80U G113C A119G was -3.1.
C72A G120U: the “polymerase ribozyme fitness (log ratio)” value came out at 0.158.
The value for C70G C94U was -3; that for G69U C82G C89A was -1.32.
For the variant G71U C99G C115U, the “polymerase ribozyme fitness (log ratio)” value was -7.86.
Consider C70U C97U C101U C102A, for which the “polymerase ribozyme fitness (log ratio)” value was -4.84.
The value for C72G C102U U106G was -4.73; that for G71U C89A U132A was -2.07.
The same measure for C72G G117U A121U G127A: -3.25; for C70G U92C: -4.9; for C70U C88G U125G: -1.36.
The value for C70G G77A G93A A100U A105G U106A was -4.21.
Take G71C C79G: the “polymerase ribozyme fitness (log ratio)” value is -1.96.
The same measure for G69U C76G U133A: -2.07; for G71A G128C: -3.14.
The same measure for G69U U81C: 0.131; for G69C G135U: -2.29; for G69C G135A: -1.9.
The same measure for C70U C82G C124A U130C: 0.602; for G71U C99A: -7.48.
On to C70G G110A, for which the “polymerase ribozyme fitness (log ratio)” value is -4.37.
Turning to G71U C102G U112A G127U, the “polymerase ribozyme fitness (log ratio)” value is -5.37.
As to G69U C102G, the “polymerase ribozyme fitness (log ratio)” value was -2.76.
The same measure for C72G A119G: 1.3; for C70U A90G U106A: 0.297; for C72A G110A: -1.01.
The value for G71U G93U was -0.956; that for G71U C85A was -1.72; that for C70U U78G was -0.747.
For the variant C70U U78C, the “polymerase ribozyme fitness (log ratio)” value was -1.4.
The value for G71A U96A was -2.13; that for G71A G110A C115U was -5.43; that for C70U C79U G93U was -2.15.
As to C70U U131A, the “polymerase ribozyme fitness (log ratio)” value was -0.232.
The same measure for C70U U131C: 0.366; for G69C U87A C123G: -0.694.
The value for G69A U92A was -6.38; that for C70A U81C C88A G120U was -3.19; that for G69U C104A G113C was -1.8.
Take G69C A121U: the “polymerase ribozyme fitness (log ratio)” value turned out to be 0.369.
The value for G69C G113A C114A U125A U133A was -4.08; that for C70U C114A was -2.33.
The value for C70A G128C was -4.69.
The value for G69C C86G was -2.97.
With G71A C124A, the “polymerase ribozyme fitness (log ratio)” value is 1.21.
The same measure for G69U A103G U106A: -4.7.
As to G71U C97U U112A, the “polymerase ribozyme fitness (log ratio)” value was determined as 1.1.
C70A U78A C115U: the “polymerase ribozyme fitness (log ratio)” value was -4.18.
The value for C72A C89U was -0.157; that for C72A C89A was -0.502; that for G69U G93U U109C was -4.75.
The same measure for C70U C97U C123G U126A: -0.00382; for G71U G110U: -1.24; for C72G C80A: -5.5.
The same measure for G71U A121U: 2.07; for C70U U96A G120A: -0.134.
G69C C88U: the “polymerase ribozyme fitness (log ratio)” value is -1.17.
On to G71C U112A, for which the “polymerase ribozyme fitness (log ratio)” value worked out at 0.348.
The same measure for C72A U81G G110U: -6.47; for G71U U87C: -0.194.
In the case of C70A C86A, the “polymerase ribozyme fitness (log ratio)” value was -2.39.
The same measure for C70U U125A: -1.31; for G69U A111G: 1.89.
For G71A A118G, the “polymerase ribozyme fitness (log ratio)” value is -0.577.
The same measure for C70U C85U U126A: -3.11.

(Values after the RNAGym collection of RNA variant scans (doi:10.1073/pnas.2313332121).)
